Measured values taken from patent US20240115717A1 (VRG THERAPEUTICS KFT, published 2024).

Biological target: phage-displayed CTXD of SEQ ID NO: 24 (bacteriophage M13)
Assay: Co-bead test, phage display (FIG. 3)

B1: his-tagged MMP-2 (Co-bead test; ProSpec #ENZ-769) (enzyme)
chain: YNFFPRKPKWDKNQITYRIIGYTPDLDPETVDDAFARAFQVWSDVTPLRFSRIHDGEADIMINFGRWEHGDGYPFDGKDGLLAHAFAPGTGVGGDSHFDDDELWTLGEGQVVRVKYGNADGEYCKFPFLFNGKEYNSCTDTGRSDGFLWCSTTYNFEKDGKYGFCPHEALFTMGGNAEGQPCKFPFRFQGTSYDSCTTEGRTDGYRWCGTTEDYDRDKKYGFCPETAMSTVGGNSEGAPCVFPFTFLGNKYESCTSAGRSDGKMWCATTANYDDDRKWGFCPDQGYSLFLVAAHEFGHAMGLEHSQDPGALMAPIYTYTKNFRLSQDDIKGIQELYGASPDIDLGTGPTPTLGPVTPEICKQDIVFDGIAQIRGEIFFFKDRFIWRTVTPRDKPMGPLLVATFWPELPEKIDAVYEAPQEEKAVFFAGNEYWIYSASTLERGYPKPLTSLGLPPDVQRVDAAFNWSKNKKTYIFAGDKFWRYNEVKKKMDPGFPKLIADAWNAIPDNLDAVVDLQGGGHSYFFKGAYYLKLENQSLKSVKFGSIKSDWLGC
notes: range 110-660; also called matrix metalloproteinase 2
**Q.** Does B1 bind?
**A.** binds
